How the values were obtained:
Assay in all cases: surface plasmon resonance, 25 °C
rat IL-6 = target: T1, rat IL-6 (rat, UniProt P20607 25-211)
T1 construct: also called IL-6 from rat
T1 sequence (looked up): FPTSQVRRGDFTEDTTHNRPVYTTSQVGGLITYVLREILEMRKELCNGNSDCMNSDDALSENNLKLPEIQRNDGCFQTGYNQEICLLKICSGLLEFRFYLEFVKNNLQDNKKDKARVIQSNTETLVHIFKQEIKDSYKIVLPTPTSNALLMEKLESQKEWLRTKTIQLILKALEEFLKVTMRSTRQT

mouse IL-6 = target: T2, mouse IL-6 (mouse, UniProt P08505 25-211)
T2 construct: also called IL-6 from mouse
T2 sequence (looked up): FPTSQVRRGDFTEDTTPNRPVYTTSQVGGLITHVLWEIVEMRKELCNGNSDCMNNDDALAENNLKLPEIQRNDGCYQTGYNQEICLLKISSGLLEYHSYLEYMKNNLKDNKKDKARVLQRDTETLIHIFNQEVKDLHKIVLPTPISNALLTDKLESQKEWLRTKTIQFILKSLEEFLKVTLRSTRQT

human IL-6 = target: T3, human IL-6 (human, UniProt P05231 30-212)
T3 construct: also called huIL-6; hIL-6

cynomolgus monkey IL-6 = target: T4, cynomolgus monkey IL-6 (cynomolgus monkey, UniProt P79341 28-212, limits assumed)
T4 construct: also called IL-6 of cynomolgus monkey
T4 sequence (looked up): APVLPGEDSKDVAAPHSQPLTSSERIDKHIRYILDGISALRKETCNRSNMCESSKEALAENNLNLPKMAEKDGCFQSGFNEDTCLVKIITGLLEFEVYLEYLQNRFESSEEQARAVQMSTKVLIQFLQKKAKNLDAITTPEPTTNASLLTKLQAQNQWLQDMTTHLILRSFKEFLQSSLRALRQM

Kd (rat IL-6): 1.4 nM
Kd (mouse IL-6): 0.4 nM
Kd (human IL-6): 0.004 nM
Kd (cynomolgus monkey IL-6): 0.031 nM
B1: antibody Ab1 (antibody, human IgG1, kappa, N297A, V domains shown)
VH: EVQLVESGGGLVQPGGSLRLSCAASGFSLSNYYVTWVRQAPGKGLEWVGIIYGSDETAYATSAIGRFTISRDNSKNTLYLQMNSLRAEDTAVYYCARDDSSDWDAKFNLWGQGTLVTVSS
VL: AIQMTQSPSSLSASVGDRVTITCQASQSINNELSWYQQKPGKAPKLLIYRASTLASGVPSRFSGSGSGTDFTLTISSLQPDDFATYYCQQGYSLRNIDNAFGGGTKVEIKR
notes: It is a humanized (from rabbit), full length, aglycosylated antibody with human kappa and IgG gamma-1 constant regions, produced in Pichia pastoris; also called Ab1 monoclonal antibody; anti-IL-6 antibody Ab1
